This note sets out measurements from patent publication US20030027251.

This series deals with bacteriophage λ cII protein (UniProt P03042).

Consider “FtsH(E415A), protease-deficient mutant of FtsH”, for which the fold induction of β-galactosidase (induced/uninduced), strain SYKD006; reference SYKD004 without plasmid ftsH: 21 stood at 26 fold; the “fold induction of β-galactosidase, strain SYKD006” value is listed as “This reduction in the expression of lacZ was not observed in the presence of FtsH (E415A)”; the “β-galactosidase level against arabinose used to induce FtsH(E415A), strain SYKD008” value is on record as “inducing the strain SYKD008 at different concentrations of arabinose did not have any effect on the levels of β-galactosidase being produced”.
Consider E. coli FtsH, for which the fold induction of β-galactosidase (induced/uninduced), strain SYKD005; reference SYKD004 without plasmid ftsH: 21 is 10 fold; the “fold induction of β-galactosidase, strain SYKD005” value was “the fold induction of β-galactosidase was reduced to half when cII was induced with IPTG in the presence of FtsH”; the “β-galactosidase level against arabinose used to induce FtsH, strain SYKD007” value is recorded as “in SYKD007 the level of β-galactosidase appeared to be directly correlated to the amount of arabinose used for induction”.
